According to article PMC2396426 (Nucleic Acids Research, 2008):

Target: T1, yeast general transcription factor TFIIB (yeast, UniProt P29055 1-345)
T1 sequence (looked up): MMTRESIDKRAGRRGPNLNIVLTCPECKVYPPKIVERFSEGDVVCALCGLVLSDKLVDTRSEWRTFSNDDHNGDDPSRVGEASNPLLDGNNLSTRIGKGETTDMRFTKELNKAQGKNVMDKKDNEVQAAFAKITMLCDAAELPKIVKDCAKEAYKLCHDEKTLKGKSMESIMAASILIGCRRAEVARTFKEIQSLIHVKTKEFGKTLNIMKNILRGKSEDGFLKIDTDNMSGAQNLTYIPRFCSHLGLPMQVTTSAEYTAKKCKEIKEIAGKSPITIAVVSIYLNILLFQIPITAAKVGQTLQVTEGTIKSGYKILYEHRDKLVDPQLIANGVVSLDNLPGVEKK
Assay: native gel or EMSA

B1: yeast TATA-binding protein (TBP) (natural protein, UniProt P13393 1-240, looked up)
chain: MADEERLKEFKEANKIVFDPNTRQVWENQNRDGTKPATTFQSEEDIKRAAPESEKDTSATSGIVPTLQNIVATVTLGCRLDLKTVALHARNAEYNPKRFAAVIMRIREPKTTALIFASGKMVVTGAKSEDDSKLASRKYARIIQKIGFAAKFTDFKIQNIVGSCDVKFPIRLEGLAFSHGTFSSYEPELFPGLIYRMVKPKIVLLIFVSGKIVLTGAKQREEIYQAFEAIYPVLSEFRKM
B1: binds.
